The results in this text go back to PMC10369405 (JACS Au, 2023).

The assay addresses T1, full-length human Gasdermin D (human, UniProt P57764 1-484).
T1 construct: Gasdermin D, human, UniProt P57764, 484 residues (53 kDa); His6-SUMO tag removed with Ulp1 protease and anion exchange; also called hGSDMD; GSDMD; source: E. coli BL21 (DE3) Gold, purified (HisTrap, Ulp1 cleavage, anion exchange, Superdex 75)
T1 sequence (looked up): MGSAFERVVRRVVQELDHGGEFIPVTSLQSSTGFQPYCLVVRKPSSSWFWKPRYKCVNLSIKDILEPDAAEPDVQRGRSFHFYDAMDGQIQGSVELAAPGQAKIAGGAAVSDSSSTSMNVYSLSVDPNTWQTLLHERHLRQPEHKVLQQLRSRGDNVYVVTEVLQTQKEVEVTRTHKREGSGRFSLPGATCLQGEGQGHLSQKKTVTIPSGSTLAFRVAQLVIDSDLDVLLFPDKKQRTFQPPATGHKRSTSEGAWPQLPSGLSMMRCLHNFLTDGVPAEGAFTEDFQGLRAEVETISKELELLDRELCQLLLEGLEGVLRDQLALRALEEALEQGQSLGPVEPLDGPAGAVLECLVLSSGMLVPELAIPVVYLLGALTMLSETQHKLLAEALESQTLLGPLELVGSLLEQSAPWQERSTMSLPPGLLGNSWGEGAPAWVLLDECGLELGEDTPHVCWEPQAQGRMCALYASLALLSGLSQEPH
Put plainly: native gel or EMSA; native-PAGE, 12% polyacrylamide, 150 V, 25 mM Tris-HCl, 192 mM glycine, pH 8.3; Caspase-1 alone (40 uM), GSDMD alone (40 uM), GSDMD/Caspase-1 at 1:1 and 2:1 equivalents, with and without 20 mM NaTDB. Conditions: both partners purified.

B1: human Caspase-1 (C285A) p20/p10 dimer (complex)
chain 1: NPAMPTSSGSEGNVKLCSLEEAQRIWKQKSAEIYPIMDKSSRTRLALIICNEEFDSIPRRTGAEVDITGMTMLLQNLGYSVDVKKNLTASDMTTELEAFAHRPEHKTSDSTFLVFMSHGIREGICGKKHSEQVPDILQLNAIFNMLNTKNCPSLKDKPKVIIIQAARGDSPGVVWFKD
chain 2: AIKKAHIEKDFIAFCSSTPDNVSWRHPTMGSVFIGRLIEHMQEYACSCDVEEIFRKVRFSFEQPDGRAQMPTTERVTLTRCFYLFPGH
notes: peptides 279-286 and 287-297 are assigned to it; Caspase-1 p10 subunit (p10 fragment), human; peptides 342-352, 375-383 and 384-391 are assigned to it; Polycistronic vector encoding an N-terminal His-tag; also called hCaspase-1 (C285A); protease C285A
For B1, the binding result is on record as “binds”.
